Km, kcat and kcat/Km data for one substance are collected here from PMC4327562, “Emergence of terpene cyclization in Artemisia annua” (Nature Communications, 2015).

The data set has as its system CC(C)=CCC/C(C)=C/CC/C(C)=C/CO[P@@](=O)(O)OP(=O)(O)O. Nature of the data set: purified protein. To be noted: 5 mM MgCl2, pH 7.0, 30 °C, inorganic pyrophosphatase coupled.

Chain of (E)-β-farnesene synthase (BFS), A. annua BFS (Artemisia annua) (chain, as listed by the source): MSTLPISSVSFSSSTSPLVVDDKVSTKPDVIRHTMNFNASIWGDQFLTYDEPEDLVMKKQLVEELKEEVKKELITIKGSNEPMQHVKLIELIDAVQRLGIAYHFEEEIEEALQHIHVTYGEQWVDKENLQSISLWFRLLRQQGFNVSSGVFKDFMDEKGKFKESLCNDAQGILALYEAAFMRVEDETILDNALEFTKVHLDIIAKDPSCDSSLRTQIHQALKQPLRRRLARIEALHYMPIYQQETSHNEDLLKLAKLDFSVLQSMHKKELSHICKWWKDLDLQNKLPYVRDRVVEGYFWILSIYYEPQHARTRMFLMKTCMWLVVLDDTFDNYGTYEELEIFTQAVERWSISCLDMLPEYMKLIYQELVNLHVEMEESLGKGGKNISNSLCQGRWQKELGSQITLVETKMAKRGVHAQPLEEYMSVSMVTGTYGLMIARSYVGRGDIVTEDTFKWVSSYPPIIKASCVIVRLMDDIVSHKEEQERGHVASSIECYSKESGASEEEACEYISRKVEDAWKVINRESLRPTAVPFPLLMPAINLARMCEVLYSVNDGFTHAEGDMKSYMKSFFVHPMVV

As for “(E)-β-farnesene synthase (BFS), A. annua BFS (Artemisia annua)”, the Michaelis constant (Km) was determined as 16.19 µM, the kcat stood at 0.17 s⁻¹ and the kcat/Km is 10500 M⁻¹ s⁻¹.

As usually defined, the Km is the substrate concentration at which the rate is half of its maximum. What is called kcat is the maximal rate divided by the concentration of active sites. As usually defined, the kcat/Km is the turnover number divided by the Michaelis constant.
